Square brackets hold non-standard residues; d marks the D form. Ends that are not written are not given here.
Molecular target: T1, mouse ADAMTS7 (Mus musculus, UniProt Q68SA9)
T1 construct: Full-length mouse Adamts7 1-1857 (Uniprot Q68SA9, WT or E373Q catalytic mutant); expressed in transfected cells; host or cells: Human Coronary Artery Smooth Muscle Cells (HCA-SMC, Lonza), adenovirus 50 MOI
T1 sequence (Q68SA9 221-1657): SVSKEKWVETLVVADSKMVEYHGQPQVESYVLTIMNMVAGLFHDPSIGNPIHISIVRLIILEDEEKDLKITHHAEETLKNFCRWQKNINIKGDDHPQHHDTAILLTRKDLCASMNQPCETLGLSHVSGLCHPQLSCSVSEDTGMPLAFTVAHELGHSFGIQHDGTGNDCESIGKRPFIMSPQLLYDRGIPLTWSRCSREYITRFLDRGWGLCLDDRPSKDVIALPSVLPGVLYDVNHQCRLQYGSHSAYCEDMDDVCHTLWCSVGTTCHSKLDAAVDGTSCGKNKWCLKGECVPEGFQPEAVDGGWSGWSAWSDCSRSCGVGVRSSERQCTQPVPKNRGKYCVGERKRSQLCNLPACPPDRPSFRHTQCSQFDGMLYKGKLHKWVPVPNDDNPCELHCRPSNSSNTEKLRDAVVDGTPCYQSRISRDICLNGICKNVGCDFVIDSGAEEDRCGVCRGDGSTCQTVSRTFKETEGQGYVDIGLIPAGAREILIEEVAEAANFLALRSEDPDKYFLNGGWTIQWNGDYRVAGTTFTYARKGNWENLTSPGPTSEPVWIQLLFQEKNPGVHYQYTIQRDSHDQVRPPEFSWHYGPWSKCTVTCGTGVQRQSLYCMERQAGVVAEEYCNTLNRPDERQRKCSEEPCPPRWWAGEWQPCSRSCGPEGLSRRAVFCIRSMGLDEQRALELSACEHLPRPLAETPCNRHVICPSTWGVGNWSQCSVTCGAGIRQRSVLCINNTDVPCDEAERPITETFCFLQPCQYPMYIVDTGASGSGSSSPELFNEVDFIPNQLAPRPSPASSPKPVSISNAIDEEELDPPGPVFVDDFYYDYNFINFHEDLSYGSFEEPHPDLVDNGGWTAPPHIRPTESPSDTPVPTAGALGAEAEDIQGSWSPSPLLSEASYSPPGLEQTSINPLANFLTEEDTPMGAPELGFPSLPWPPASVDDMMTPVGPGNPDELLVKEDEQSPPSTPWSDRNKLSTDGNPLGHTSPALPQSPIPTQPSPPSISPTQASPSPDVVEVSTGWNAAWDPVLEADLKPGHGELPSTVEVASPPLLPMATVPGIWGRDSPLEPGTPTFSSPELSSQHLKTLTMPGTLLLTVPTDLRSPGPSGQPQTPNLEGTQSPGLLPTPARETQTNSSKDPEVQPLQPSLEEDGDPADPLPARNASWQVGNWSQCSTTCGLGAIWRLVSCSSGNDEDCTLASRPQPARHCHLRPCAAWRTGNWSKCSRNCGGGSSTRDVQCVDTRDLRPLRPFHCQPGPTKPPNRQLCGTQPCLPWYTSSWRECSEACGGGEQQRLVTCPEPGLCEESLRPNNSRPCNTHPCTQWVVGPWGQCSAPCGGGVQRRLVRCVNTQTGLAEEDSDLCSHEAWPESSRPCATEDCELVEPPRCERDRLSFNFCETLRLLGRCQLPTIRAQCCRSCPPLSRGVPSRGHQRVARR
Assay: TMT10 TAILS N-terminomics, SMC2 experiment (process replicates, trypsin/AspN digest)
Format: cell-based
Settings: SMC2_TAILS HC
From the text: ADAMTS7 Expression, Cell Culture and Preparation of the Secreted Proteins—Full-length mouse Adamts7 1-1857 (Uniprot Q68SA9, WT or E373Q catalytic mutant) with a carboxyl terminal 3xFLAG tag was used to generate custom adenoviruses as previously described. Adeno-CMV-Luciferase (Ad-Luc) from Vector Biolabs was used as a negative control. Human Coronary Artery Smooth Muscle Cells (HCA-SMC) were obtained from Lonza and expanded in Lonza SmGM-2 media in 15 cm tissue culture plates. Twenty-four hours before media collection, near confluent plates were transduced with 50 MOI adenovirus and switched to Lonza Basal SM media with volumes of 20 ml per 15 cm plate. Expression of the Flag tagged ADAMTS7 was confirmed from the media using western blot and detected using the anti-Flag M2-HRP antibody (Sigma, A8592). Collected media was processed by adding protease inhibitors (1 mM EDTA and 1 mM PMSF) and clarified by 500 g×5 min spin at 4 C to pellet cell debris. Cell media supernatants were then passed through a 0.22 um filter and kept chilled. Processed media was then concentrated 50-100× using 3 kDa Centricon Plus-70 filter unit, spun at 3,500 g×60 min at 4 C. Approximately 10% of the processed, concentrated media was set aside for total secretome proteolytic analysis. The remaining 90% of the processed, concentrated media was buffer exchanged into 50 mM HEPES pH 8.0, 150 mM NaCl (2×50 ml) using the 3 kDa Centricon Plus-70 filter unit and concentrated to >2 mg/ml to serve as input for the TAILS experiment. Secretome and TAILS input samples were stored at −80° C.
For the first experiment, referred to as SMC1, 120 ml of media from 6×15 cm dishes was pooled from each condition (Luc, WT, EQ) and processed to produce three separate inputs for the TAILS experiment. Luc, WT and EQ inputs from the SMC1 experiment were each divided into triplicate 400 ug samples to generate technical replicate TAILS data. For the second experiment, referred to as SMC2, media was processed separately in triplicate for each condition (Luc1, Luc2, Luc3, WT1, WT2, WT3, EQ1, EQ2, EQ3) using 60 ml of media from 3×15 cm dishes for each process replicate. Inputs from the SMC2 experiment used process replicates of 300 ug each to generate TAILS data. The third experiment used input from cultured Human umbilical vein endothelial cells (HUVEC) from Lifeline Cell Technology grown in VascuLife Media and transduced in Lifeline Basal EC (+bFGF2 10 ng/ml). The HUVEC experiment used the same strategy as the SMC2 experiment, with 40 ml of media from 2×15 cm dishes for each process replicate and used 200 ug each to generate TAILS data. Inputs for process replicate experiments were restricted to the lowest concentration from the 9 parallel samples for SMC2 or HUVEC.
TMT10 isotopic labeling and negative selection of non-labeled peptides-Sample preparation was performed based on the TAILS protocol from the Overall lab with some modifications. From a single experiment, nine parallel protein samples in 50 mM HEPES pH 8.0, 150 mM NaCl were separately denatured with guanidinium chloride (Sigma, G4505) to reach a final concentration of 2.5M guanidinium chloride and 250 mM HEPES and incubated at 65° C. for 15 min. Reduction was achieved through addition of tris(2-carboxylethyl) phosphine (TCEP) at a final concentration of […] and incubated at 65° C. for 45 min. Alkylation reaction was performed with addition of iodoacetamide (IAA, Sigma, A3221) to a final concentration of 10 mM IAA for 15 min at room temperature in the dark. Following denaturation, reduction and alkylation steps, ten percent of each of the nine parallel protein samples was removed and combined to serve as a pooled reference. Isobaric tags were added to free amine groups using the TMT10plex Isobaric Mass Tagging Kit (ThermoFisher, 90113) with TMT channels randomly assigned to the nine samples and TMT 131 assigned to the pooled reference. […]

[1] = log fold change of N-terminal peptide, Ad-mADAMTS7 WT over Luc

Row | Substance | logFC.mWT.over.Luc (log fold change, mWT over Luc) | logFC.mWT.over.Luc [1]
1 | AEBP1_37 (FLEGFLSELEPEPR; listed as Homo sapiens) | 3.21 | –
2 | CCDC80_66 (LEEPNLQPLQR; listed as Homo sapiens) | 2.08 | –
3 | EFEMP1_124 (AVAGPEMQTGR; listed as Homo sapiens) | 2.81 | –
4 | EFEMP1_125 (VAGPEMQTGR; listed as Homo sapiens) | 1.43 | –
5 | FBLN2_259 (ALGPPAPVQAKAR; listed as Homo sapiens) | 1.61 | –
6 | FBLN2_260 (LGPPAPVQAKAR; listed as Homo sapiens) | 1.98 | –
7 | FBN1_29 (LEAGNVKETR; listed as Homo sapiens) | 3.33 | –
8 | FBN1_53 (LKGPNVCGSR; listed as Homo sapiens) | 4.64 | –
9 | FLNA_1285 (LTQTGGPHVKAR; listed as Homo sapiens) | 4.37 | –
10 | FN1_36 (MVQPQSPVAVSQSKPGCYDNGKHYQINQQWER; listed as Homo sapiens) | 3.59 | –
11 | FN1_40 (QSPVAVSQSKPGCYDNGKHYQINQQWER; listed as Homo sapiens) | 2.60 | –
12 | FN1_1143 (LTPGVEYVYTIQVLR; listed as Homo sapiens) | 2.31 | –
13 | FN1_1656 (SSSPVTGYR; listed as Homo sapiens) | 1.20 | –
14 | GSN_413 (HIANVER; listed as Homo sapiens) | 1.91 | –
15 | HSPG2_275 (LLPGSVR; listed as Homo sapiens) | 1.74 | –
16 | HSPG2_2331 (ANLAYPAGSTQPIR; listed as Homo sapiens) | 1.72 | –
17 | HSPG2_2333 (LAYPAGSTQPIR; listed as Homo sapiens) | 1.19 | –
18 | IGFBP3_31 (SAGLGPVVR; listed as Homo sapiens) | 2.12 | –
19 | IGFBP3_32 (AGLGPVVR; listed as Homo sapiens) | 4.68 | –
20 | IGFBP7_101 (AAGGPGVSGVCVCKSR; listed as Homo sapiens) | 2.53 | –
21 | LOXL1_219 (VASAGVIYPYQPR; listed as Homo sapiens) | – | 1.56
22 | LOXL2_37 (FQQPAPEYHQPQAPANVAKIQLR; listed as Homo sapiens) | – | 3.27
23 | LOXL2_38 ([code q]QPAPEYHQPQAPANVAKIQLR; not fully specified; listed as Homo sapiens) | – | 1.74
24 | LOX_58 (LSLGSQYQPQR; listed as Homo sapiens) | 1.68 | –
25 | LOX_123 (HWFQAGYSTSR; listed as Homo sapiens) | 1.37 | –
26 | LOX_124 (WFQAGYSTSR; listed as Homo sapiens) | 3.35 | –
27 | LOX_126 (QAGYSTSR; listed as Homo sapiens) | 2.77 | –
28 | LTBP1_393 (LTATNFR; listed as Homo sapiens) | – | 6.60
29 | LTBP1_540 (HQQVIPHVYPVAAKTQLGR; listed as Homo sapiens) | – | 1.82

Reference: patent US20240368668A1, “SUBSTRATES AND BIOMARKERS OF ADAMTS7” (The Broad Institute, Inc., priority 2021, published 2024)
